Laboratory results taken from the Human Domainome abundance scans (Beltran et al. 2025).

B1: Death-inducer obliterator 1, residues 263 to 321; numbered along this chain, Q9BTC0 (parent)
chain: GYDPNALYCICRQPHNNRFMICCDRCEEWFHGDCVGISEARGRLLERNGEDYICPNCTI

Variants of: B1
Experiment: abundance fitness (aPCA) (normalised: wild type 0, dead -1); higher = more abundant; growth selection in yeast, the domain comes from the species named
Details: Homo sapiens

Abundance fitness: each site, then its substitutions
D33: L -0.047; W -0.237; H -0.101; A -0.154; Y 0.13; Q -0.127; G -0.027; C -0.013; T 0.008; K -0.028; E -0.026; M -0.195; S -0.048; N -0.259; R -0.002; V -0.198; P -0.136
G32: T 0.084; V -0.055; F -0.016; P -0.155; I 0.169; Q -0.054; A 0.067; W 0.05; H -0.009; D 0.045; R 0.026; Y -0.421; N -0.179; E 0.022; S -0.036; M -0.054; L 0.025
G49: I -0.016; Q -0.145; W -0.462; C -0.216; F -0.243; M -0.002; K 0.163; V -0.199; D -0.299; E 0.283; Y 0.01; S 0.173; N 0.11; L -0.089; T -0.047; R -0.066; H 0.1; A 0.052
C34: G -0.726; D -0.376; L -0.805; A -0.68; E -0.608; F -1.12; W -1.03; S -0.867; H -0.368; Q -0.644; K -0.763; T -0.703; P -0.803; M -0.831; N -0.937; R -0.697
A40: C 0.151; P -0.143; S -0.022; L 0.043; H -0.182; N -0.434; M 0.004; Y -0.094; W -0.193; F -0.262; G -0.11; D -0.019; T -0.077; Q -0.315; V -0.146; R -0.205
G36: W -0.469; R -0.072; E 0.057; H -0.111; Y -0.066; A -0.153; D 0.038; I -0.15; Q 0.013; V -0.173; S -0.002; P -0.425; F -0.256; L -0.135; C -0.122; M 0.009
E50: G -0.046; W -0.356; H -0.006; L -0.201; M -0.157; T 0.037; P 0.068; Y -0.58; S -0.192; N -0.027; A -0.011; V -0.041; K 0.04; F -0.019; R -0.273; I -0.14; C -0.461; D -0.005
E39: F -0.043; M -0.21; P -0.257; V -0.036; I -0.226; Y -0.22; T -0.213; N -0.017; Q -0.048; H -0.277; R -0.037; D -0.144; A -0.262; W -0.143; G -0.217; S -0.061; L -0.055
L44: W -0.015; F 0.097; A 0.03; S 0.021; Y -0.028; D -0.063; G 0.08; M 0.029; V -0.045; H 0.108; P 0.092; I -0.238; R 0.08; C -0.026; Q 0.047; K 0.048; N 0.121; T -0.069
R47: S 0.037; A 0.083; G 0.111; K 0.359; V 0.188; F -0.204; P 0.186; T 0.134; E -0.043; L 0.079; N -0.05; Y -0.286; Q -0.346; M -0.155; I 0.058; W -0.062; D 0.268
V35: S -0.403; R -0.387; G -0.333; N -0.171; F -0.225; W -0.61; A -0.058; C -0.113; M -0.043; T -0.095; E -0.602; I 0.159; P -0.345; D -0.351; Y -0.707; Q -0.183; K -0.407
D51: E 0.029; H -0.169; A 0.142; C -0.094; G 0.088; F -0.203
S38: Y -0.193; L -0.076; H -0.033; D 0.197; A -0.053; M 0.118; C -0.166; F -0.238; E -0.146; W -0.109; G 0.03; P 0.001; N -0.245; V 0.071; I 0.155; K -0.17; T 0.027; Q -0.251; R -0.13
E46: M -0.055; F -0.16; Q -0.218; K 0.079; T 0.106; I -0.265; W -0.265; C 0.155; A 0.163; Y 0.065; R 0.021; V 0.044; P -0.189; G -0.089; L -0.109; H -0.663; N -0.009; S -0.064
H31: R -0.584; K -0.967; S -0.776; T -0.956; W -0.507; M -0.667; N -0.765; F -0.559; I -0.67; P -1.05; Q -0.782; Y -0.732; D -0.422; L -0.628; E -0.923; V -0.664
R43: P 0.182; H 0.154; L 0.029; N 0.044; G 0.103; K 0.057; D -0.292; A 0.143; I 0.081; T -0.049; V -0.202; C 0.188; Y -0.044; E 0.133; W -0.132; F -0.318; Q 0.059; M 0.017; S 0.114
G42: Y 0.067; I 0.193; M 0.096; W 0.29; Q 0.048; N 0.334; H 0.245; V 0.069; S -0.051; P -0.151; D -0.044; T 0.017; E 0.25; L 0.062; C 0.065; F -0.029; R 0.315
R41: S 0.041; D 0.347; V 0.075; I -0.157; K -0.008; F -0.133; Y -0.065; A 0.075; L -0.078; P 0.135; E 0.085; W -0.443; N 0.24; G 0.037; T -0.099; M -0.05; Q -0.193; C 0.062
I37: E -0.054; M -0.208; D -0.447; V -0.12; S -0.133; T 0.062; R -0.017; H -0.076; F -0.095; K 0.168; Q 0.091; P -0.253; G -0.122; Y 0.094; W 0.061; C -0.113; L -0.054; A -0.127
L45: V 0.016; P -0.014; S 0.033; I -0.214; E 0.075; T -0.08; C -0.062; G -0.068; W -0.14; R -0.005; M -0.096; Y -0.055; H 0.152; F -0.295; D -0.01; K -0.173
